Reference: patent US20130337050A1 (IMMUNOFUTURE, published 2013)

B1: GST-mTfR1 (GST-fused recombinant protein of the partial sequence 321-329 of mouse transferrin receptor 1) (other, not shown: a dimerising Fc or GST)
chain: TQFPPSQSS

Columns and labels:
Test in all cases: amylose resin pull-down, western blotting with anti-GST antibody
[1] = target: B1
[2] = target: MBP-VP1 GH strand I (fused recombinant protein of VP1 GH strand I and MBP) (poliovirus)
[3] = target: MBP-VP1BC loop (fused recombinant protein of VP1BC loop and MBP) (poliovirus)

STKDLTTY (other) [MBP-VP1C terminal region (fused recombinant protein of VP1C terminal region and MBP)]
binding result [1]: binds

SKVPLKDQSAALGDSLYGAASLNDFGILAVRVV (other) [MBP-VP1 GH strand II (fused recombinant protein of VP1 GH strand II and MBP)]
binding result [1]: binds

B1
binding result [2]: binds
binding result [3]: binds

ALGDSLYGAASLN (other) [MBP-VP1 GH loop (fused recombinant protein of VP1 GH loop and MBP)]
binding result [1]: binds
